Source: patent US20050148763A1, “Peg-binding pth or peg-binding pth derivative” (Chugai Seiyaku Kabushiki Kaisha, priority 2002, published 2005)

Assays:
human PTH1 receptors [1] = molecular target: T1, human PTH1 receptors (Homo sapiens, UniProt Q03431); assay: in vitro ability to produce cAMP, HKRK-B7 cells; format: cell-based; conditions: Table 2(1), n=2-3; for EC50: cAMP production
T1 construct: expressed in transfected cells; host or cells: HKRK-B7 and HKRK-B64 cells (derived from pig kidney LLC-PK1 cells)
T1 sequence (Q03431 27-593): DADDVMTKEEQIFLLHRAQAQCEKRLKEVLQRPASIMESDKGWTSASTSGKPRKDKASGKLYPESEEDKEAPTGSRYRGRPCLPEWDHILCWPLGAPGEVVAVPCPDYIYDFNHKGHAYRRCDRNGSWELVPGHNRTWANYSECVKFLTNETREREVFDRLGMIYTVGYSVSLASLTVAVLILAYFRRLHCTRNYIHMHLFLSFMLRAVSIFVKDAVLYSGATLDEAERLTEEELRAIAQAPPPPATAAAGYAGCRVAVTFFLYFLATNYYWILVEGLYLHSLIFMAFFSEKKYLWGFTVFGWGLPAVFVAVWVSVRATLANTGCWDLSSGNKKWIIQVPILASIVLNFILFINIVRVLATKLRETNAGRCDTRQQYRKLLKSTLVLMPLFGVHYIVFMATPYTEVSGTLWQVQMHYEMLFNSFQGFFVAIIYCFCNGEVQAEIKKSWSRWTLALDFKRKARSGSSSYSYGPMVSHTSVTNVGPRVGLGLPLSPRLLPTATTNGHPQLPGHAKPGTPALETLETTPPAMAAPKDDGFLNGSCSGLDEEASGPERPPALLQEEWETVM
Experimental: (§1) Each PEG-PTH sample was assayed for its ability to produce cAMP (indicative of the increasing effect of PTH on bone mass) as follows. […] These cells were seeded in 96-well plates at 1×10^5 cells/well and incubated overnight. […] After removing the reaction solution, the plates were placed on powdered dry ice to freeze the cells and then removed from the dry ice. The cells were thawed with 50 μL of 50 mM HCl and frozen again on dry ice. The level of intracellular cAMP was determined with a commercially available EIA kit (Biotrak cAMP EIA system, Amersham).

human PTH1 receptors [2] = molecular target: T1, human PTH1 receptors; assay: in vitro ability to produce cAMP, HKRK-B64 cells; format: cell-based; conditions: Table 2(2), n=2-3; for EC50: cAMP production
Experimental: Each PEG-PTH sample was assayed for its ability to produce cAMP (indicative of the increasing effect of PTH on bone mass) as follows. HKRK-B7 and HKRK-B64 cells, genetically modified from pig kidney-derived LLC-PK1 cells to overexpress human PTH1 receptors at levels of about 1×10^6 and 9×10^4 receptors per cell, respectively, as well as EW29 cells expressing about 1.9×10^5 rat PTH1 receptors per cell (Takasu et al., J. Bone. Miner. Res. 14: 11-20, 1999) were grown in DMEM supplemented with 10% FBS, 1% penicillin and 1% streptomycin. These cells were seeded in 96-well plates at 1×10^5 cells/well and incubated overnight. On the following day, the cells were washed once with 200 μL binding buffer (50 mM Tris-HCl/100 mM NaCl/5 mM KCl/2 mM CaCl2/5% inactivated horse serum/0.5% inactivated bovine serum, pH 7.7), followed by addition of 100 μL cAMP assay buffer (DMEM/2 mM 3-isobutyl-1-methylxanthine/1 mg/mL bovine serum albumin/35 mM HEPES-NaOH, pH 7.4) on ice. […] After removing the reaction solution, the plates were placed on powdered dry ice to freeze the cells and then removed from the dry ice. The cells were thawed with 50 μL of 50 mM HCl and frozen again on dry ice. The level of intracellular cAMP was determined with a commercially available EIA kit (Biotrak cAMP EIA system, Amersham).

rat PTH1 receptors = molecular target: T2, rat PTH1 receptors (Rattus norvegicus, UniProt P25961); assay: in vitro ability to produce cAMP, EW29 cells; format: cell-based; conditions: Table 2(3), n=2-3; for EC50: cAMP production
T2 construct: expressed in transfected cells; host or cells: EW29 cells
T2 sequence (P25961 27-591): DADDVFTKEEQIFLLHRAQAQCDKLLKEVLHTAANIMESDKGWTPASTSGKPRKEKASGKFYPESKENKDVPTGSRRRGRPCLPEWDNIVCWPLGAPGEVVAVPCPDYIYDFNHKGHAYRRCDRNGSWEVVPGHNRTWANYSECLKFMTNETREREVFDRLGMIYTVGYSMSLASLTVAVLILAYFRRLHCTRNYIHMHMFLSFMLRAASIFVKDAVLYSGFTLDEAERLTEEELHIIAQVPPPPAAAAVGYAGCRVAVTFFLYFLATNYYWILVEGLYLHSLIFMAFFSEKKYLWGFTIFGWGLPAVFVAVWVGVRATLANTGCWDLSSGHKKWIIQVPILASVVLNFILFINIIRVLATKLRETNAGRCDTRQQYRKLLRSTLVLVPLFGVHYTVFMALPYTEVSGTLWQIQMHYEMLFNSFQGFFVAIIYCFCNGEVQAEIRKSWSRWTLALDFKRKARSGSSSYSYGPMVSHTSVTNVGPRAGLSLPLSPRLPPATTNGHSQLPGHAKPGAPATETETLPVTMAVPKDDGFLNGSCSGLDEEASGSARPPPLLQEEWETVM
Experimental: as §1

[3] = Hypercalcemic effect of PEG-[Cys^35]-PTH(1-35) in normal female DDY mice; format: in vivo; conditions: for Blood iCa level Hour 1: 1 hour after administration; for Blood iCa level Hour 3: 3 hours; for Blood iCa level Hour 6: 6 hours; for Blood iCa level Hour 9: 9 hours; for Blood iCa level Hour 24: 24 hours; for Blood iCa level Hour 0: before administration; for hypercalcemic effect (in words): 10-150 nmol/kg
Experimental: 2 k, 5 k and 20 k PEG-[Cys^35]-PTH(1-35) were also adjusted similarly to 30, 10 and 2 nmol/mL (calculated as PTH) and allowed to stand on ice immediately before administration.
Using female DDY mice at 6 weeks of age (Japan SLC, Inc.), the corrected level of ionized calcium at pH 7.4 was determined for each sample in the same manner as shown in (1) above. The mice received subcutaneous administration of each drug at a dose of 5 mL/kg. The buffer was administered to a group of 5 mice. […] 150 nmol/kg 2 k, 5 k and 20 k PEG-[Cys^35]-PTH(1-35) were administered to groups of 4 mice each. 50 and 10 nmol/kg 2 k, 5 k and 20 k PEG-[Cys^35]-PTH(1-35) were administered to groups of 5 mice each. At 1, 3, 6, 9 and 24 hours after administration, blood was collected by orbital puncture to monitor the time course of corrected blood ionized calcium levels.

5 k PEG-[Cys^35]-hPTH(1-35): [Cys^35]-hPTH(1-35) conjugated with 5 kDa PEG (SVSEIQLMHNLGKHLNSMERVEWLRKKLQDVHNFC; Parathyroid hormone 5 kDa PEG at Cys35; UniProt P01270 32-66, looked up, variant V35C)
Maximum cAMP response (human PTH1 receptors [1]): 122.7 ± 11.5 pmol/well | EC50 (human PTH1 receptors [1]): 0.9 nM | Maximum cAMP response (human PTH1 receptors [2]): 66.6 ± 17.4 pmol/well | EC50 (human PTH1 receptors [2]): 1 nM | Maximum cAMP response (rat PTH1 receptors): 52.5 ± 14.1 pmol/well | EC50 (rat PTH1 receptors): 3.5 nM | Blood iCa level Hour 1 ([3]; 10 nmol/kg sc): 1.44 ± 0.02 mM | Blood iCa level Hour 3 ([3]; 10 nmol/kg sc): 1.50 ± 0.02 mM | Blood iCa level Hour 6 ([3]; 10 nmol/kg sc): 1.43 ± 0.02 mM | Blood iCa level Hour 9 ([3]; 10 nmol/kg sc): 1.28 ± 0.04 mM | Blood iCa level Hour 24 ([3]; 10 nmol/kg sc): 1.36 ± 0.03 mM | Blood iCa level Hour 0 ([3]; 10 nmol/kg sc): 1.30 ± 0.04 mM | Blood iCa level Hour 1 ([3]; 50 nmol/kg sc): 1.43 ± 0.03 mM | Blood iCa level Hour 3 ([3]; 50 nmol/kg sc): 1.49 ± 0.04 mM | Blood iCa level Hour 6 ([3]; 50 nmol/kg sc): 1.48 ± 0.03 mM | Blood iCa level Hour 9 ([3]; 50 nmol/kg sc): 1.35 ± 0.06 mM | Blood iCa level Hour 24 ([3]; 50 nmol/kg sc): 1.36 ± 0.04 mM | Blood iCa level Hour 0 ([3]; 50 nmol/kg sc): 1.31 ± 0.03 mM | Blood iCa level Hour 1 ([3]; 150 nmol/kg sc): 1.43 ± 0.04 mM | Blood iCa level Hour 3 ([3]; 150 nmol/kg sc): 1.49 ± 0.03 mM | Blood iCa level Hour 6 ([3]; 150 nmol/kg sc): 1.52 ± 0.05 mM | Blood iCa level Hour 9 ([3]; 150 nmol/kg sc): 1.35 ± 0.02 mM | Blood iCa level Hour 24 ([3]; 150 nmol/kg sc): 1.40 ± 0.05 mM | Blood iCa level Hour 0 ([3]; 150 nmol/kg sc): 1.30 ± 0.03 mM | increased blood ionized calcium level maintained until ([3]; female DDY mice, sc): 6 h | time of maximum increase in blood ionized calcium levels after administration ([3]; female DDY mice, sc): 3 h

20 k PEG-[Cys^35]-hPTH(1-35): [Cys^35]-hPTH(1-35) conjugated with 20 kDa PEG (SVSEIQLMHNLGKHLNSMERVEWLRKKLQDVHNFC; Parathyroid hormone 20 kDa PEG at Cys35; UniProt P01270 32-66, looked up, variant V35C)
Maximum cAMP response (human PTH1 receptors [1]): 131.1 ± 7.5 pmol/well | EC50 (human PTH1 receptors [1]): 2.7 nM | Maximum cAMP response (human PTH1 receptors [2]): 79.6 ± 14.6 pmol/well | EC50 (human PTH1 receptors [2]): 8 nM | Maximum cAMP response (rat PTH1 receptors): 59.4 ± 12.9 pmol/well | EC50 (rat PTH1 receptors): 9.1 nM | Blood iCa level Hour 1 ([3]; 10 nmol/kg sc): 1.39 ± 0.03 mM | Blood iCa level Hour 3 ([3]; 10 nmol/kg sc): 1.51 ± 0.01 mM | Blood iCa level Hour 6 ([3]; 10 nmol/kg sc): 1.48 ± 0.05 mM | Blood iCa level Hour 9 ([3]; 10 nmol/kg sc): 1.43 ± 0.05 mM | Blood iCa level Hour 24 ([3]; 10 nmol/kg sc): 1.78 ± 0.09 mM | Blood iCa level Hour 0 ([3]; 10 nmol/kg sc): 1.27 ± 0.04 mM | Blood iCa level Hour 1 ([3]; 50 nmol/kg sc): 1.44 ± 0.03 mM | Blood iCa level Hour 3 ([3]; 50 nmol/kg sc): 1.53 ± 0.02 mM | Blood iCa level Hour 6 ([3]; 50 nmol/kg sc): 1.51 ± 0.03 mM | Blood iCa level Hour 9 ([3]; 50 nmol/kg sc): 1.44 ± 0.06 mM | Blood iCa level Hour 24 ([3]; 50 nmol/kg sc): 2.44 ± 0.12 mM | Blood iCa level Hour 0 ([3]; 50 nmol/kg sc): 1.30 ± 0.04 mM | Blood iCa level Hour 1 ([3]; 150 nmol/kg sc): 1.42 ± 0.02 mM | Blood iCa level Hour 3 ([3]; 150 nmol/kg sc): 1.54 ± 0.02 mM | Blood iCa level Hour 6 ([3]; 150 nmol/kg sc): 1.55 ± 0.03 mM | Blood iCa level Hour 9 ([3]; 150 nmol/kg sc): 1.43 ± 0.06 mM | Blood iCa level Hour 24 ([3]; 150 nmol/kg sc): 2.71 ± 0.19 mM | Blood iCa level Hour 0 ([3]; 150 nmol/kg sc): 1.30 ± 0.02 mM | hypercalcemic effect (in words) ([3]; female DDY mice, sc, listed as 20 k PEG-(Cys^35]-PTH(1-35)): very high blood ionized calcium levels at all tested doses | hypercalcemic effect (in words) ([3]; female DDY mice, sc, listed as 20 k PEG-[Cys^35]-PTH (1-35)): maintained a significantly higher level than that of the buffer group even at 9 hours after administration
